From the supplement of paper PMC9732359
± gives the uncertainty stated by the source.

Assay: protein stability index of a GFP-peptide fusion (yeast GPS) (PSI 1-4); higher = more stable; sorted into four equal gates, so the index is relative within each strain
In short: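 Each library plasmid carries Cherry plus GFP with a tiled 17-residue yeast protein peptide fused downstream, and the pooled library was carried in yeast. Mid-log cultures in leucine-free medium were sorted into four equal gates by GFP/Cherry ratio. Reads from Illumina sequencing of PCR-amplified plasmids from each gate were assigned to strains by barcodes. Per peptide, the protein stability index was computed as the summed products of gate read frequency and gate number.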

Sequence	protein stability index (doa10∆)	protein stability index (pdr5∆)	protein stability index (san1∆)	protein stability index (ubr1∆)
GDVSSGLFEKSTVSANH [BRN1]	2.84 ± 0.12	3.31 ± 0.094	2.74 ± 0.11	–
VSFDFNGVPGQALDAVR [MED8]	3.1 ± 0.077	3.36 ± 0.079	3.32 ± 0.079	3.36 ± 0.061
AQFTFGKAATAKETHTK [YOR098C/NUP1]	2.84 ± 0.13	2.81 ± 0.17	2.84 ± 0.18	3.02 ± 0.18
ERLAKVNEMNDQLAQEL [NNF1]	3 ± 0.22	3.42 ± 0.17	3.28 ± 0.12	2.85 ± 0.18
QDKIELSEEETLLVIRR [SNF2]	2.38 ± 0.11	2.27 ± 0.11	2.92 ± 0.072	2.98 ± 0.089
FVSSGFDTSIKLDIISD [RPN14]	2.39 ± 0.045	2.53 ± 0.047	2.23 ± 0.057	2.44 ± 0.035
SFAKLVPCEGKDVTQGL [SMC2]	1.62 ± 0.08	2.07 ± 0.088	1.5 ± 0.23	1.86 ± 0.08
RSALEKGSRFISTLQVK [RPB2]	1.47 ± 0.13	1.23 ± 0.087	1.67 ± 0.19	1.6 ± 0.088
EERFSELFKGYLADDID [RPL5]	3.05 ± 0.29	3.27 ± 0.24	3.3 ± 0.17	3.01 ± 0.28
LMLKKLKNSIMSFIFPS [YML031W/NDC1]	2.21 ± 0.058	2.3 ± 0.066	2.28 ± 0.073	2.37 ± 0.062
SDVSDFEGWGHEYIRHL [RPN1]	3.07 ± 0.15	3.09 ± 0.14	3.17 ± 0.14	3.37 ± 0.15
AKKQNRPLPQWIRLRTN [RPL39]	1.95 ± 0.063	2.69 ± 0.043	1.26 ± 0.082	2.44 ± 0.043
DWEKYKAPLEDDDKKPD [RPT1]	3.16 ± 0.12	3.56 ± 0.19	2.96 ± 0.21	3.31 ± 0.16
ESMDFLVLADAFDIELS [YCS4]	2.32 ± 0.039	2.82 ± 0.043	2.64 ± 0.055	2.64 ± 0.039
RAKAEAAEFRYKYGYDM [SCL1]	2.85 ± 0.065	2.91 ± 0.063	2.71 ± 0.058	2.57 ± 0.047
VIDIEIHVLEQDGGIMG [SKI6]	2.84 ± 0.076	2.56 ± 0.095	2.5 ± 0.11	2.85 ± 0.062
NSIDINYKGLPKKYKEN [SMC1]	2.91 ± 0.068	3.16 ± 0.08	3.21 ± 0.07	3.36 ± 0.059
TDNVSMYPSPTGVMIGI [PRP8]	2.65 ± 0.065	2.41 ± 0.063	2.02 ± 0.086	2.3 ± 0.041
PGTVLILLAGRFRGKRV [RPL6A]	1.61 ± 0.066	1.83 ± 0.069	1.66 ± 0.11	2.19 ± 0.073
AGIRPKFILALNDEGEP [RPN1]	–	1.9 ± 0.14	2.72 ± 0.24	1.46 ± 0.073
RIGKHRKHPGGRGMAGG [RPL28]	2.92 ± 0.12	2.63 ± 0.24	2.97 ± 0.1	3.22 ± 0.16
GNVTELYGTAIGARSQG [PRE5]	2.11 ± 0.08	2.09 ± 0.15	1.94 ± 0.071	1.31 ± 0.044
HEDLVNSIESKNLSLQT [COR1]	2.96 ± 0.087	2.96 ± 0.074	3.09 ± 0.083	2.97 ± 0.073
EEIPINSSEQESDYEPN [SIR3]	2.82 ± 0.068	3.15 ± 0.067	3 ± 0.045	2.77 ± 0.048
VSSESSDEAIIPVNKRR [SIR3]	3.31 ± 0.15	2.98 ± 0.12	3.02 ± 0.1	3.22 ± 0.082
LEDLKDVYASKVRLNAS [PRP8]	2.31 ± 0.043	2.1 ± 0.041	2.47 ± 0.047	2.27 ± 0.04
EAVELPLVQADLYEQIG [RPT3]	3.17 ± 0.15	2.81 ± 0.24	3.39 ± 0.12	2.93 ± 0.17

Sequence	protein stability index (doa10∆)	protein stability index (pdr5∆)	protein stability index (san1∆)	protein stability index (ubr1∆)
EYDTPALFFDPSLNPIP [PRP8]	2.82 ± 0.056	2.87 ± 0.036	2.65 ± 0.048	2.69 ± 0.036
RQTTSNTGLLNKANIQA [RPN11]	3 ± 0.092	3.02 ± 0.072	3.17 ± 0.054	3.19 ± 0.07
QKTQELNAKYQSLGLDD [ISW2]	3.31 ± 0.061	3.26 ± 0.048	3.17 ± 0.042	3.31 ± 0.052
KAGGECITLDQLAVRAP [RPL18A]	2.1 ± 0.097	2.29 ± 0.085	2.86 ± 0.072	2.57 ± 0.077
PSVNDFVIGVIIGTFSD [RRP40]	1.64 ± 0.06	2.51 ± 0.07	2.15 ± 0.077	2.56 ± 0.084
FHNAVFNSFRRFKSQFL [QCR8]	2.31 ± 0.068	1.52 ± 0.046	1.6 ± 0.088	1.54 ± 0.046
NHFIFNVESAGAMTPEE [RPC40]	2.01 ± 0.059	2.02 ± 0.061	2.4 ± 0.062	2.47 ± 0.045
LFDAAFYMKKDAVEGVS [RPO31]	2.75 ± 0.24	2.96 ± 0.14	3.31 ± 0.076	2.65 ± 0.11
QLTPQQQQLVNQMKVAP [GAL11]	2.8 ± 0.061	2.98 ± 0.058	3.01 ± 0.061	2.79 ± 0.049
DVSPLRRVNQAIALLTI [RPS5]	2.07 ± 0.065	2.05 ± 0.077	1.85 ± 0.15	1.47 ± 0.055
RAVANRTDATFIRVIGS [RPT1]	3.22 ± 0.1	3.26 ± 0.069	3.17 ± 0.082	3.09 ± 0.062
DIWSISKKRQAEKLVPL [YML031W/NDC1]	2.64 ± 0.089	2.78 ± 0.076	2.35 ± 0.073	2.55 ± 0.062
RGLTPQEFFFHAMGGRE [RPO21]	2.32 ± 0.05	2.42 ± 0.054	2.2 ± 0.074	2.35 ± 0.046
NSLKETLQDFHLIFSNA [SNF2]	2.85 ± 0.072	2.82 ± 0.068	2.27 ± 0.13	2.44 ± 0.092
EENFEATRTLVASIQND [YCG1]	3.03 ± 0.16	3.24 ± 0.11	3 ± 0.14	2.71 ± 0.14
VRKETYSSYIYKVLKQT [HTB2]	3.08 ± 0.074	3.26 ± 0.065	3.24 ± 0.051	3.12 ± 0.038
AERTMSKKETKLQENRT [SMC2]	2.84 ± 0.25	3.17 ± 0.19	3.31 ± 0.15	3.04 ± 0.13
DESTIKRIKPNTEITQK [ECM29]	2.88 ± 0.051	2.96 ± 0.053	2.95 ± 0.046	2.91 ± 0.044
KLSISNAASQQPTPRSA [GAL11]	2.57 ± 0.083	2.61 ± 0.081	2.73 ± 0.058	2.91 ± 0.049
EKGKKVSGFKDEVLETV [RPS1B]	3.39 ± 0.11	2.82 ± 0.11	3.48 ± 0.11	3.44 ± 0.084
GNGNVSESDIINNLPPE [YCG1]	2.85 ± 0.24	2.85 ± 0.13	2.95 ± 0.27	2.78 ± 0.15
SSTKDYLTPPHECRLRD [RET1]	3.34 ± 0.12	3.22 ± 0.14	3.2 ± 0.18	3.25 ± 0.16
GISSTLVSANNDNNSPH [YLR018C/POM34]	2.62 ± 0.051	2.89 ± 0.06	3.01 ± 0.058	2.96 ± 0.067
EYYVMMDFANLWVFQAF [SRB8]	2.37 ± 0.098	2.37 ± 0.082	2.63 ± 0.093	2.64 ± 0.057
CAEGIFVVKLDTVDRLI [GAL11]	2.89 ± 0.12	3.13 ± 0.11	3.02 ± 0.13	2.62 ± 0.092
EISKKDFVRKGGLQKGK [SIR3]	2.38 ± 0.11	1.91 ± 0.083	1.98 ± 0.11	1.95 ± 0.092
